Data on 2 substances can be found in paper PMC13083955.

Experiment [1] addresses Dsk2 UBA (Saccharomyces cerevisiae) (UniProt P48510). The settings on record: cited from earlier work.
Experiment [2] addresses full-length Dsk2 (yeast (S. cerevisiae)) (UniProt P48510).

The term Kd denotes the concentration at which binding is half-saturated.

Take Dsk2 UBL (from UniProt P48510): the Kd in experiment [1] is 80 µM.

Consider “full-length Dsk2 (from UniProt P48510 1-373) (natural protein)”, for which the phase separation of Dsk2 alone, saturation concentration (csat) against temperature (20 mM NaPhosphate pH 6.8, 150 mM NaCl, 7.5% PEG 8000, 0.5 mM EDTA) in experiment [2] is 10 µM.
